From the supplement of paper PMC9170038

The sequences below were run on MS2 coat protein (assay: apparent KD of MS2 coat protein, switch OFF state (with FMN for OFF switches, without FMN for ON switches); designed switch direction (-1 OFF switch, 1 ON switch): -1; higher = weaker reporter binding). Details: FMN input: 0 or 200 uM; Eterna round: R93 (includes R88 designs).
Procedure, shortened: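 Each design's apparent KD comes from the median of binding-curve fits to its normalised clusters. Those clusters carried RNA switches transcribed on-chip from Illumina sequencing clusters. SNAP-549-labelled MS2 coat protein was titrated onto them in twofold steps (0.7 or 1.5 nM to 3 µM; per step 0.8–1.5 h down to 10–20 min). Conditions were 100 mM Tris-HCl pH 7.5, 80 mM KCl, 4 mM MgCl2, without or with constant ligand.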
For “CAAAGGUGAGGAUAUACAAAACUAUGACGAAAGUCAUAAAAACAUGAGGAUCACCCAUGUAGAAGGCACCACAA [E2 64% 2]”, the “apparent KD of MS2 coat protein” value was 23.7 nM.
In the case of “GAAAACAGAGGAUAUACGGGAUUGACACGAAAAGUGCAAAAACAUGAGGAUCACCCAUGUAGAAGGCUGAAGAA [Meechl MS2... 60% 2]”, the “apparent KD of MS2 coat protein” value is reported as 42.5 nM.
In the case of “AAUAAGUGAGGAUAUGUGAAUAGUAGAUAAGAUUCCCUAAAACAGAAGGCACAUGAGGAUCACCCAUGUAAAUA [JR_Exc004_Sub008]”, the “apparent KD of MS2 coat protein” value is reported as 24.1 nM.
For “GGAUGCCAAGGAUAUACAUGAGGAUCACCCAUGUGAGAGAAAAAAGUGAGAAAGAAAAGUAGAAGGUGGUGUCG [salish99-ex3-92]”, the “apparent KD of MS2 coat protein” value was 65.2 nM.
In the case of “GAAUGACUAGGAUAUACAUGAGGAUCACCCAUGUGUAUAAAUAAAUACACAAAAGAAAGUAGAAGGAGUCAAAG [Mat - Exclusion 3 - Mayanna mod - D124]”, the “apparent KD of MS2 coat protein” value is reported as 83.2 nM.
With “CUCUUGUCAGGAUAUCCAAGAAAAGAAAAGAAAGAAAAGAAGGAGAAGGGACAUGAGGAUCACCCAUGUAAGAA [EteRNA is fun!]” the “apparent KD of MS2 coat protein” value was 113 nM.
For “AAAAAGUGAGGAUAUGUCAAAGGUCACGAAAGUGACAAAGGACAGAAGGCACAUGAGGAUCACCCAUGUAAAAA [Fiskers Exclusion 4D1 65% - Early G segment 1]”, the “apparent KD of MS2 coat protein” value was 43.6 nM.
For “AGCUAGUCAGGAUAUACGAACAUGUCAAAAGACGUGAGGGAACAUGAGGAUCACCCAUGUAGAAGGGACUAGCA [Moving G segment in JL's topscorer (74%)]”, the “apparent KD of MS2 coat protein” value was 37.5 nM.
For “AAAGGACGAGGAUAUACAUGAGGAUCACCCAUGUAAAAAACAUAAUAAAAGAACUUGUGUAGAAGGCGUCCAAA [Meechl Ex3 2 R2 v6]”, the “apparent KD of MS2 coat protein” value was 335 nM.
With “AAAACGGUAGGAUAUACAUGAGGAUCACCCAUGUUAAAUUUAAAAAUAAAAUUAAAAUGUAGAAGGACCAAAAA [Mai Tai1]” the “apparent KD of MS2 coat protein” value was 35 nM.
With “CUCAUGUUAGGAUAUAUAUGAAAUGAAGUGAAAGAAAAGAAAUAGAAGGAACAUGAGGAUCACCCAUGUUAGAA [EteRNA is fun!]” the “apparent KD of MS2 coat protein” value was 32.6 nM.
For “ACAAAGUGAGGAUAUGCUAUCGUACAAUAUAGUUAUCGUAUGCAGAAGGCACAUGAGGAUCACCCAUGUAAGAA [Ex 4 Tesla 9]”, the “apparent KD of MS2 coat protein” value was 36.7 nM.
For “CUCAAGUUAGGAUAUGAAAGAAAAGAAGAGAAAGAAAAGAAUCAGAAGGAACAUGAGGAUCACCCAUGUAAGAA [EteRNA is fun!]”, the “apparent KD of MS2 coat protein” value was 19.5 nM.
“AAGGGACAUGAGGAUCACCCAUGUCAGGAUAUCGGAAAAGGAAAAAAAAAAAAGAAGACGAGAAGGGACACCAA” was tested, and the “apparent KD of MS2 coat protein” value was 26.8 nM.
“AACAGACAUGAGGAUCACCCAUGUAAGGAUAUCCCAAACGAUAAAACAAGAAUGACAAGGAGAAGGUGCAGCAA [JR_Exc001_Sub006]” was tested, and the “apparent KD of MS2 coat protein” value was 50.8 nM.
For “CAGUACUGAGGAUAUACAUGAGGAUCACCCAUGUAUCAAAGCUAGGAAACUAGCACAUGUAGAAGGCAGUACUG [Ex3: 823]”, the “apparent KD of MS2 coat protein” value was 132 nM.
With “AAGAAGUAAGGAUAUCGGAGAGAACAAGAAAGUGAAGAAUACGAGAAGGUACAUGAGGAUCACCCAUGUAAAGA [EXC - 4]” the “apparent KD of MS2 coat protein” value was 19 nM.
With “CUCUUGUGAGGAUAUCGAAGAAAAGAAAAGAAAGAAAAGAACGAGAAGGCACAUGAGGAUCACCCAUGUAAGAA [EteRNA is fun!]” the “apparent KD of MS2 coat protein” value was 61.8 nM.
In the case of “AAAAAGGGAGGAUAUGCAUACACACAAAAAAAAAAAAAAAAACAUGAGGAUCACCCAUGUAGAAGGCCCAAAAA [Dora Explored 4 - Jieux - Exclusion 2]”, the “apparent KD of MS2 coat protein” value is reported as 14.4 nM.
“AAAAGGAAAGGAUAUGCAGACUGGGUCACCCAGAUGUAUGAACAUGAGGAUCACCCAUGUAGAAGGUUCAAAAG [Ribiquon]” was tested, and the “apparent KD of MS2 coat protein” value was 26.5 nM.
In the case of “AAAAGAAAAGGAUAUAAAAAGAAAAGUCAGGAUAUAGGAAACUAGAAGGGACAUGAGGAUCACCCAUGUAAAAG [Meechl Ex4 R2 m2]”, the “apparent KD of MS2 coat protein” value is reported as 71.9 nM.
“AAGAAACAUGAGGAUCACCCAUGUGAGGAUAUGCAAGAAAGAAAGAAAGAAAGAAGAAGCAGAAGGCACAAAGG [Gaius Turranius]” was tested, and the “apparent KD of MS2 coat protein” value was 65.9 nM.
With “AUAAACUGAGGAUAUACAUGAGGAUCACCCAUGUAAAAAAAAAAAUGAUCCUCAAAAAGUAGAAGGCAGAAUAA [JR_Exc003_Sub016]” the “apparent KD of MS2 coat protein” value was 35.8 nM.
For “GAAAAACAUGAGGAUCACCCAUGUAAGGAUAUGCUAAAAAACGCAAAAAAAGCGAAUAGCAGAAGGUACAAAAA [Mat - Exclusion 1 - Eli mod - D83]”, the “apparent KD of MS2 coat protein” value was 33.4 nM.
“GUCAGCUGAGGAUAUACAGGUGAUGCCGCAUAACAAAAUAUACAUGAGGAUCACCCAUGUAGAAGGCGGAAGAC [Zalaa]” was tested, and the “apparent KD of MS2 coat protein” value was 20.2 nM.
For “UCCUCACAUGAGGAUCACCCAUGUGAGGAUAUCUGAAAAAAAAAAAAAAAAAAAAAUCAGAGAAGGCACAUGGG [Design 11: Super Stable Short Helix 1]”, the “apparent KD of MS2 coat protein” value was 4.55 nM.
“AAAAAGUGAGGAUAUACAUGAGGAUCACCCAUGUGUUAAAAAAAAAGGGUGGAAGAAAGUAGAAGGCACCAAAA [Ex 3 May 50]” was tested, and the “apparent KD of MS2 coat protein” value was 22.9 nM.
For “GCAAAGUGAGGAUAUACGCGAACAAAAAUAAAAAAGAAAGCGUAGAAGGCACAUGAGGAUCACCCAUGUCCAGC [Mat - Exaclusion 4 - Eli mod - D77]”, the “apparent KD of MS2 coat protein” value was 30.3 nM.
With “AAAAAUUGAGGAUAUACAUGAGGAUCACCCAUGUUAGACCUAAAAAAAGGGAAAGAAAGUAGAAGGCAAUAAAA [Ex 3 May 28]” the “apparent KD of MS2 coat protein” value was 18.8 nM.
With “AAGAAGCAAGGAUAUACAUGAGGAUCACCCAUGUAAAAGAAAGAAAAGGGAAAGAAAAGUAGAAGGUGCAAGAA [Menmaatre Seti I]” the “apparent KD of MS2 coat protein” value was 27 nM.
With “AAAGGACGAGGAUAUACAUGAGGAUCACCCAUGUAAAAAGCGUAAUAAAAGAACUUAUGUAGAAGGCGUCCAAA [Meechl Ex3 2 R2 v1]” the “apparent KD of MS2 coat protein” value was 66.8 nM.
In the case of “AACAGUACAGGAUAUACAUGAGGAUCACCCAUGUAGAGAGAAUAAAACAAAAAUAAAUGUAGAAGGGUACUGAA [Mat - Exclusion 3 - Eli mod - D68]”, the “apparent KD of MS2 coat protein” value is reported as 25.5 nM.
“AACGGGCUAGGAUAUACACAAGCCUCAGAACAAAUAAACAAACAUGAGGAUCACCCAUGUAGAAGGAGCGCAAA [Lesocerean]” was tested, and the “apparent KD of MS2 coat protein” value was 42.9 nM.
In the case of “AUCAUGUAAGGAUAUUUAAGAAAAGAAAAGAAAGAAAAGAAAAAGAAGGUACAUGAGGAUCACCCAUGUAAGAA [EteRNA is fun!]”, the “apparent KD of MS2 coat protein” value is reported as 18.9 nM.
In the case of “AAAAAACAUGAGGAUCACCCAUGUAAGGAUAUGCUCGUGCGAAAAGCACAAAAAAAGAGCAGAAGGUACAAAAA [66%, Wbt, 39]”, the “apparent KD of MS2 coat protein” value is reported as 33.3 nM.
In the case of “AACAGUACAGGAUAUACAUGAGGAUCACCCAUGUGAAAAUUAAGUGGCGUACCACAGUGUAGAAGGGUACUGGA [Moding Maslow Revisited (73) 25]”, the “apparent KD of MS2 coat protein” value is reported as 62.7 nM.
“AAAAAGUGAGGAUAUACAUGAGGAUCACCCAUGUGAAAUCGGAAAAAAAACGAAAAAAGUAGAAGGCACAAAAA [Fiskers Exclusion 3 D3]” was tested, and the “apparent KD of MS2 coat protein” value was 22.1 nM.
In the case of “AAGAAACGAGGAUAUACAAAAUAAAAGAAAAGAAAGAAAGAACAUGAGGAUCACCCAUGUAGAAGGCGUAAGAA [Wahibre Ibiau]”, the “apparent KD of MS2 coat protein” value is reported as 30.3 nM.
With “AAGAAUAGAGGAUAUACAAGGAAGAAAGAAAAGAAAAGAAAACAUGAGGAUCACCCAUGUAGAAGGCUAUAGAA [EteRNA is fun!]” the “apparent KD of MS2 coat protein” value was 26.2 nM.
“AAUAGUGAAGGAUAUACUGGAGGAGUACGAUAAAAGAAAGAACAUGAGGAUCACCCAUGUAGAAGGUCAGAAGU [JR_Exc002_Sub1227]” was tested, and the “apparent KD of MS2 coat protein” value was 24.1 nM.
“GCUUGGGUAGGAUAUACAUGAGGAUCACCCAUGUGAGAGAAAAAAGUGAGAAAGAAAAGUAGAAGGACCUGAGG [salish99-ex3-107]” was tested, and the “apparent KD of MS2 coat protein” value was 244 nM.
With “AAAAAUAGAGGAUAUACAUGAAAAAAAAAAAAAAAAAAAAAACAUGAGGAUCACCCAUGUAGAAGGCUAAAAAA [double AU!]” the “apparent KD of MS2 coat protein” value was 29.2 nM.
“AACUGACAUGAGGAUCACCCAUGUCAGGAUAUGCUUCAUAAAAAAAAAAAAAAAUGAUGCAGAAGGGACAUGGG [Design 32 :P Sub-opt 8]” was tested, and the “apparent KD of MS2 coat protein” value was 110 nM.
In the case of “AGCUAGUGAGGAUAUACGAACAUGUCAAAAGACGUGAAGAAACAUGAGGAUCACCCAUGUAGAAGGCACUAGCA [Mat - Exclusion 2 - JL-Eli mod - D55]”, the “apparent KD of MS2 coat protein” value is reported as 14.9 nM.
“AGAAAUGUAGGAUAUACAUGAGGAUCACCCAUGUGGGAGGAGGAGCAAACAAGACGAGGUAGAAGGACAACGAC [JR_Exc003-Sub903]” was tested, and the “apparent KD of MS2 coat protein” value was 79.2 nM.
